Source: US11583589B2, “Cell membrane penetrating conjugates” (priority 2017, dated 2023)

System: HeLa cells
Test: Cellular uptake of NHS-coumarin labelled proteins, fluorescence microscopy
Assay type: cell-based
Experimental: Labelling of proteins with fluorescent dyes—Fluorescent dyes were considered as an example of a functional molecule for investigating the cell membrane penetration ability of the conjugate. Labelling of the recombinant protein with a dye was carried out by performing a series of reaction in dark conditions. The protein to be labelled was collected in PBS buffer (1× and pH 7.3) and the dye was collected at two to three times higher concentration to that of the protein. The protein was added to 0.1M sodium carbonate buffer (pH 8.5) followed by the dye. The dye was added very slowly (30 μl each time) to the buffer containing the protein kept on ice accompanied by occasional shaking. The resulting solution was wrapped with aluminium foil to keep away any light. The solution was stirred for 1 hour at room temperature and was then purified by gel filtration, i.e. passed through a desalting column or a PD 10 column with 1×PBS buffer. […]
Cellular uptake of labelled proteins—The uptake of labelled proteins was checked by treating mammalian cells with different labelled proteins such as AlbG (SEQ ID NO: 1), EfsQNR (SEQ ID NO: 2) and, as a comparative example, TtCuA (SEQ ID NO: 13). […] The cells were then washed twice, after 3 hours and 24 hours with HBSS (Hanks […] salt solution) or PBS and observed under fluorescence microscopy and/or confocal laser scanning microscope. […]

B1: TtCuA-NHSC: comparative example: TtCuA protein (SEQ ID NO: 13, Thermus thermophilus) labelled with NHS-coumarin dye (conjugate)
chain: AYTLATHTAGVIPAGKLERVDPTTVRQEGPWADPAQAVVQTGPNQYTVYVLAFAFGYQPNPIEVPQGAEIVFKITSPDVIHGFHVEGTNINVEVLPGEVSTVRYTFKRPGEYRIICNQYCGLGHQNMFGTIVVKE
modifications: NHS-coumarin dye label; Amino acid sequence of TtCuA protein
fluorescence inside the cells (presence of conjugate inside the cells) (NHS-C labelled protein, Hoechst Blue co-stain): significantly less fluorescence | cell penetration ability (cell uptake), compared between conjugates (NHS-C labelled proteins): not able to effectively penetrate the cell membrane
